Laboratory results published in patent US20210292393A1 (published 2021).

Target: full-length trimeric SARS-CoV spike protein (SARS-CoV, UniProt P59594 14-1190)

| Binder | median fluorescence intensity, fold over isotype control [fold over isotype] |
| --- | --- |
| antibody 267 (antibody, V domains shown) VH: EVHLVQSGAEMKKPGATVKISCKVSGNTFIDHYIQWVQQAPGKGFEWMGLVDPEDGETIYAEKFQGRVTITADTSRDTAYMELSSLKSEDTAVYYCGTHGDYLDYWGQGTLVTVSS VL: FYELTQPSSVSVSPGQTALITCSGDVVAKKYARWFQQKAGQAPVLVIYKDTERPSGIPERISGSSSGTTVTLTISGAQVEDEADYYCYSATDNNLVFGGGTKVTVL | 16.9 |
| antibody 270 (antibody, V domains shown) VH: QVQLVQSGAEVKRPGTSVKVSCKTSGYTFTDHFIHWVRQAPGRRLEWMGWINPNSGGTNYAQNFQGRVTMTRDTSITTAYMDLTRLTSDDTAIYYCAREAAYGSGNLNWFDPWGQGTRVTVSS VL: NFMLTQPHSVSESPGKTVTISCTGSSGSIAANYVHWYQQRPGSAPRTVIYEDNQRPSGVPDRFSGSIDSSSNSASLTISGLKTEDEADYYCQSYDGDSWVFGGGTKLTVL | 1.34 |
| antibody 273 (antibody, V domains shown) VH: QVQLVQSGAEVKKPGASVKVSCKVSGYTLTELSMHWVRQAPGKGLEWMGGFDPEDGETIYAQKFQGRVTMTEDTSTDTAYMELSSLRSEDTAVYYCATAPGYYDSSAPQPINWFDPWGQGTLVTVSS VL: QSALTQPASVSGSPGQSITISCTGTSSDVGSYNLVSWYQQHPGKAPKLMIYEVSKRPSGVSNRFSGSKSGNTASLTISGLQAEDEADYYCCSYAGSSTLVFGGGTKLTVL | 1.23 |
| antibody 288 (antibody, V domains shown) VH: EVQLVESGGGLVQPGGSLRLSCAASGFTFSSYDMHWVRQATGKGLEWVSAIGTAGDTYYPGSVKGRFTISRENAKNSLYLQMNSLRAGDTAVYYCARGANRDYDILTGYYSYYYYGMDVWGQGTTVTVSS VL: not shown | 1 |
| antibody 290 (antibody, V domains shown) VH: QVHLVQSGAEVKKPGASVKVSCAASGYTFNNYGVSWVRQAPGQGLEWMGWISASNGNTKYAQNLQGRVTMTTDTSTSTAYMELRSLRSDDTAVYYCARDLVGPTAPNYYYGMDVWGQGTAVTVSS VL: QSVLTQPPSVSGAPGQRVTISCTGSSSSIGAGYDVHWYQQLPGTAPKLLIYANSNRPSGVPDRLSGSKSGTSASLAITGLQAEDEADYYCQSYDSSLSGYVFGTGTKVTVL | 1.25 |
| antibody 294 (antibody, V domains shown) VH: EVQLVESGGGLVQPGGSLRLSCAASGFTVSSNYMNWVRQAPGKGLEWVSVIYSGGSTYYADSVKGRFTISRDNSKNTLYLQMNSLRAEDTAVYYCARDLGPSGMDVWGQGTTVTVSS VL: DIQMTQSPSSVSASVGDRVTITCRASQGISSWLAWYQQKPGKAPKLLIYAASSLQSGVPSRFSGSGSGTDFTLTISSLQPEDFATYYCQQANSFPLFGGGTKVEIK | 1.07 |
| antibody 295 (antibody, V domains shown) VH: QVQLQESGPGLVKPSQTLSLTCTVSGGSISSSDYYWSWIRQPPGKGLEWIGYIYYSGSTYYNPSLKSRVTISVDTSKNQFSLKLSSVTAADTAVYYCARVVGYCSSTSCYVDYWGQGTLVTVSS VL: EIVLTQSPATLSLSPGERVTLSCRASQSVSSYLAWYQQKPGQAPRLLIYDASNRATGIPARFSGSGSGTDFTLTISSLEPEDFAVYYCQQRSNWPPGLTFGGGTKVEIK | 1.24 |
| antibody 299 (antibody, V domains shown) VH: not shown VL: EIVLTQSPATLSLSPGERATLSCRASQSVSSYLAWYQQKPGQAPRLLIYDASNRATGIPARFSGSGSGTDFTLTISSLEPEDFAVYYCQQRSNWPWTFGQGTKVEIK | 1.13 |
| antibody 301 (antibody, V domains shown) VH: QVQLVQSGAEVKKPGASVKVSCKVSGYTLTELSMHWVRQAPGKGLEWMGGFDPEDGETIYAQKFQGRVTMTEDTSTDTAYMELSSLRSEDTAVYYCATAFCGGDCYPPDALDIWGQGTMVTVSS VL: DIQMTQSPSSVSASVGDRVTITCRASQGISSWLAWYQQKPGKAPKLLIYAASSLQSGVPSRFSGSGSGTDFTLTISSLQPEDFATYYCQQANSFPLTFGGGTKVEIK | 1.45 |
| antibody 306 (antibody, V domains shown) VH: QVQLVESGGGVVQPGRSLRLSCAASGFTFSSYGMHWVRQAPGKGLEWVAVIWYDGSNKYYADSVKGRFTISRDNSKNTLYLQMNSLRAEDTAVYYCAKDGGYCGGDCYSDGVDYWGQGTLVTVSS VL: not shown | 1.39 |
| antibody 315 (antibody, V domains shown) VH: QVQLVQSGSELKKPGASVKLSCQASGYSFTNHAMNWVRQAPGQGLEWMGWINTNTGNPTYAQGFTGRFVFSLDTSVSTTYLHISSLKAEDTAVYYCARASARPGVATNLDFWGQGTLVVVSS VL: DIQMTQSPSSLSASVGDRVTITCRASQNIDNYLNWYQQKPGKAPKLLIYAASRLHSGVPSRFSGSGSGTDFTLIISSLQPEDLATYYCQQSYSNPLTFGPGTKVDIR | 1.07 |
| antibody 317 (antibody, V domains shown) VH: QVQLVQSGAEVKKPGASVKVSCKVSGYTLTELSMHWVRQAPGKGLEWMGGFDPEDGETIYAQKFQGRVTMTEDTSTDTAYMELSSLRSEDTAVYYCASSPAAAGTSQYYYYYGMDVWGQGTTVTVSS VL: not shown | 1.14 |

Target: SARS-CoV spike protein (full-length trimeric, on beads) (SARS-CoV, UniProt P59594 14-1190)

| Binder | bead binding signal, fold over isotype control [fold over isotype] |
| --- | --- |
| antibody 487 (antibody, V domains shown) VH: QVQLQESGPGLVKPSQTLSLTCTVSGGSISSGGYYWSWIRQHPGKGLEWIGYIYYSGSTYYNPSLKSRVTISVDTSKNQFSLKLSSVTAADTAVYYCARGPLDFWSGYFRLRYFDCWGQGTLVTVSS VL: QSALTQPASVSGSPGQSITISCTGTSSDVGGYNYVSWYQQHPGKAPKLMIYDVTNRPSGVSNRFSGSKSGNTASLTISGLQAEDEADYYCSSYTSSSTCVFGTGTKVTVL | 7.25 |
| antibody 496 (antibody, V domains shown) VH: QVQLVQSGAEVKKPGASVKVSCKASGYTFTDYYIHWVRQAPGQGLEWMGWINPNSGGTNYAQKFQGRLTMTRDTSISTAYMELSRLRSDDTAVYYCARVYSMFREFIINPYYYYYGLDVWGQGTTVTVSS VL: QSALTQPASVSGSPRQSITISCTGTSSDVGSYNLVSWYQQHPGKAPKLMIYEGSKRPSGVSNRFSGSKSGNTASLAISGLQAEDEANYYCCSYAGSSTLVFGGGTKLTVL | 1.15 |
| antibody 497 (antibody, V domains shown) VH: QVQLQESGPGLVKPSQTLSLTCTVSGGSINSFGYYWSWIRQHPGKGLEWIGYIYYSGSTDYNPSLNSRVTISLDTSKNQFLLKLTSVTAADTAVYYCAKLTDYYDSSGYSFDYWGQGTLVTVSS VL: DIQMTQSPSSVSASVGDRVTITCRASQDISRWLAWYQQKPGKAPKLLIYAASSLQSGVPSRFSGRGSGTELTLTISSLQPEDFATYFCQQAYSFPFTFGGGTKVEIK | 1.23 |
| antibody 498 (antibody, V domains shown) VH: not shown VL: QSALTQPASVSGSPGQSITISCTGTSSDVGSYNLVSWYQQHPGKAPKLMIYEGSKRPSGVSNRFSGSKSGNTASLTISGLQAEDEADYYCCSYAGSSTSFVVFGGGTKLTVL | 1.31 |
| antibody 505 (antibody, V domains shown) VH: EVQLVESGGGLVKPGGSLRLSCAASGFTFSSYSMNWVRQAPGKGLEWVSSISSSSSYIYYADSVKGRITISRDNAKNSLYLQMNSLRAEDTAVYYCAREYPNFRAEWLLSPYGMDVWGQGTTVTVSS VL: QSALTQPASVSGSPGQSITISCTGTSSDVGSYNLVSWYQQHPGKAPKLMIYEVSKRPSGVSNRFSGSKSGNTASLTISGLQAEDEADYYCCSYAGSSTSVKVFGTGTKVTVL | 1.04 |
